The text below walks through data of article PMC4369318.

The target of the test is protective antigen (PA63 as LTx) in plasma or serum of subjects with inhalation anthrax (Bacillus anthracis (secreted during infection of rhesus macaques and humans)). The test can be described thus: co-IP.
protective antigen (PA63 as LTx) in plasma or serum of subjects with inhalation anthrax (Bacillus anthracis (secreted during infection of rhesus macaques and humans)), sequence (P13423 30-764): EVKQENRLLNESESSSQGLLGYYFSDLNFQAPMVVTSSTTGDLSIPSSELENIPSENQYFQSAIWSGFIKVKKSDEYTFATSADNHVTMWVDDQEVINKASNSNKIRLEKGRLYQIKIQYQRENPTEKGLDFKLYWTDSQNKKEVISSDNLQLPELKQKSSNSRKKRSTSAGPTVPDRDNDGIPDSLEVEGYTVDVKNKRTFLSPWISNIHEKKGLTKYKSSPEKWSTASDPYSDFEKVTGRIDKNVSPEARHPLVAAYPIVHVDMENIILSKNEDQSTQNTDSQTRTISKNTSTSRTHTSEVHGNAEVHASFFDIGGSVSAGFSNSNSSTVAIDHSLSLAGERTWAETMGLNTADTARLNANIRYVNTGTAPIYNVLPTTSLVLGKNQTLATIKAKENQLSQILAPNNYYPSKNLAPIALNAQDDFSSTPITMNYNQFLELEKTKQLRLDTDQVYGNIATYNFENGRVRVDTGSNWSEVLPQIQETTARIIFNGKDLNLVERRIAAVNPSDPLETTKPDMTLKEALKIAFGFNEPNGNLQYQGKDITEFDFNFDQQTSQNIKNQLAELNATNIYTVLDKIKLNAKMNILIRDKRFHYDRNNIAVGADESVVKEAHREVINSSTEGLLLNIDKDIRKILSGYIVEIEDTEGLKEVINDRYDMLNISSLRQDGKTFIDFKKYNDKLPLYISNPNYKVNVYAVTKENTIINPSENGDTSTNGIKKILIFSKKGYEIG

“lethal factor (LF) in plasma or serum of subjects with inhalation anthrax (from UniProt P15917 34-809) (enzyme)” came in with an LTx as percent of total LF (animal 16N, terminal stage) of 100% and an LTx as percent of total LF (animal 89N, terminal stage) of 60%.
